Reference: patent US5629176A, “Human Kunitz-type protease inhibitor variants” (Novo Nordisk A/S, priority 1994, dated 1997)

Tests used:
Porcine trypsin = biological target: T1, Porcine trypsin (Sus scrofa, UniProt P00761); assay: Inhibition of serine proteinases: trypsin, peptidyl nitroanilide substrate; type: biochemical; details: 30 minutes incubation, substrate 0.6 mM, residual activity at 405 nm
T1 construct: purchased Novo Nordisk A/S
Procedure: (§1) The variants were purified from the yeast culture medium as described in example 1. The concentration of KFN 1651 was determined from the absorbance at 214 nm using aprotinin as a standard. Porcine trypsin was obtained from Novo Nordisk A/S. Human plasmin was obtained from Kabi (Stockholm, Sweden). Human neutrophil cathepsin G and elastase were purified from extracts of PMNs according to the method described by Baugh and Travis, Biochemistry 15, 1976, 836-843.
(§2) Peptidyl nitroanilide substrates S2251 ans S2586 were obtained from Kabi (Stockholm, Sweden), and S7388 and M 4765 were obtained from Sigma Chemical Co. (St. Louis, Mo., USA).
(§3) The serine proteinases were incubated with various concentrations of KFN 1900 or 1901 for 30 minutes. Substrate was then added (0.6 mM) and residual proteinase activity was measured at 405 nm.

[1] = biological target: T2, Human neutrophil cathepsin G (Homo sapiens, UniProt P08311); assay: Inhibition of serine proteinases: cathepsin G, peptidyl nitroanilide substrate; type: biochemical; details: 30 minutes incubation, substrate 0.6 mM, 405 nm
T2 construct: Human neutrophil cathepsin G and elastase were purified from extracts of PMNs; from tissue; host or cells: human polymorphonuclear leukocytes (PMNs)
T2 sequence (P08311 21-255): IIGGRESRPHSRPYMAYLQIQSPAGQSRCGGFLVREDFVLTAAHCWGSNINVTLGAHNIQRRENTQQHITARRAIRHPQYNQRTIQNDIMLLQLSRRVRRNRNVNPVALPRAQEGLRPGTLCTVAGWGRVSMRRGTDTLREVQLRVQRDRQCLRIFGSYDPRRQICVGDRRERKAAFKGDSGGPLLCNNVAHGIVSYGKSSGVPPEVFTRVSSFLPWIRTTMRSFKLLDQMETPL
Procedure: as §1, §2, §3

[2] = biological target: T3, Human neutrophil elastase (Homo sapiens, UniProt P08246); assay: Inhibition of serine proteinases: neutrophil elastase, peptidyl nitroanilide substrate; type: biochemical; details: 30 minutes incubation, substrate 0.6 mM, 405 nm
T3 construct: Human neutrophil cathepsin G and elastase were purified from extracts of PMNs; from tissue; host or cells: human polymorphonuclear leukocytes (PMNs)
T3 sequence (P08246 30-267): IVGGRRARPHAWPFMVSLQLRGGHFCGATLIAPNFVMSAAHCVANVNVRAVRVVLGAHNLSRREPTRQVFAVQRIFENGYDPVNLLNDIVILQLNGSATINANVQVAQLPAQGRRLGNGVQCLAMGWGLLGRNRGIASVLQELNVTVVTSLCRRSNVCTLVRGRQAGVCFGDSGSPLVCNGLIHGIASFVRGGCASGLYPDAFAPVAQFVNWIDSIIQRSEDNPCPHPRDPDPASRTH
Procedure: as §1, §2, §3

Human plasmin = biological target: T4, Human plasmin (Homo sapiens, UniProt P00747); assay: Inhibition of serine proteinases: plasmin, peptidyl nitroanilide substrate; type: biochemical; details: at 1 μM; 30 minutes incubation, substrate 0.6 mM, 405 nm
T4 construct: purchased Kabi (Stockholm, Sweden)
Procedure: as §1, §2, §3

[3] = biological target: Porcine trypsin (porcine) (UniProt P00761); assay: inhibition of the proteinase, 30 minutes preincubation, residual activity on a peptidyl nitroanilide substrate at 405 nm
collagenase = details: cited from earlier work

T1 sequence (P00761 9-231): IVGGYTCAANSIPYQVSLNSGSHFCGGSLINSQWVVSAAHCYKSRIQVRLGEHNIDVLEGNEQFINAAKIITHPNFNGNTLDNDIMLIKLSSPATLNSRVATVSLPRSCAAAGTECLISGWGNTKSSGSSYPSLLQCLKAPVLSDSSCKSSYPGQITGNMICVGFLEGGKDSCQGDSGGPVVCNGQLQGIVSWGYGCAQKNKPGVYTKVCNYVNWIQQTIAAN
T4 sequence (P00747 581-810 limits assumed): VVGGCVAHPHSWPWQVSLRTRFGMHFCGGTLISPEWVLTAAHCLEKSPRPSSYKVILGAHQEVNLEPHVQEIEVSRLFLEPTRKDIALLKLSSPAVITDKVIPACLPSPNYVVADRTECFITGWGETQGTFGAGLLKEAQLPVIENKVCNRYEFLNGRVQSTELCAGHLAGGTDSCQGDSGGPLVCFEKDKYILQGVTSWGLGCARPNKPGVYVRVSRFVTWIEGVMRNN
T4 sequence (P00747 97-580 partner limits assumed): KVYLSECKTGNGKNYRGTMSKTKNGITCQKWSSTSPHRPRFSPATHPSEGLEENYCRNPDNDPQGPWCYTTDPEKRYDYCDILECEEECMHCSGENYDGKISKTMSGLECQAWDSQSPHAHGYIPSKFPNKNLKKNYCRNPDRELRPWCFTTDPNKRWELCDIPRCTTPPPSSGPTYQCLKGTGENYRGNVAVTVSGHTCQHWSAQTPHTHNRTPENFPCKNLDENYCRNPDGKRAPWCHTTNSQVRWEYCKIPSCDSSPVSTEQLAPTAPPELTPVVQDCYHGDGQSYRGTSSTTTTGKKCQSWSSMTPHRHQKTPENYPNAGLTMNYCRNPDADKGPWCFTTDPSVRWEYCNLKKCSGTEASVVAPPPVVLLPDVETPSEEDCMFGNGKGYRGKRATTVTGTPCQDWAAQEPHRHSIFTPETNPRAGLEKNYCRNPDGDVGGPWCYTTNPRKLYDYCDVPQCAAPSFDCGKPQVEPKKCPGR

| Substance | Ki (Porcine trypsin) | inhibition of cathepsin G [1] | inhibition of neutrophil elastase [2] | inhibition of plasmin (Human plasmin) | Ki [3] | inhibitory effect on collagenase (collagenase) |
| --- | --- | --- | --- | --- | --- | --- |
| KFN 1900: [R15K, D16A] analog of the human α3(VI) collagen Kunitz-type protease inhibitor domain, produced from yeast strain KFN-1900 | 50 nM | did not inhibit | did not inhibit | weak inhibitors | – | – |
| KFN 1901: [D16A] analog of the human α3(VI) collagen Kunitz-type protease inhibitor domain, produced from yeast strain KFN-1901 | 355 nM | did not inhibit | did not inhibit | weak inhibitors | – | – |
| [D16A]-α3(VI) Kunitz-type domain analog (from UniProt P12111) | – | – | – | – | 355 nM | – |
| [R15K, D16A]-α3(VI) Kunitz-type domain analog (from UniProt P12111) | – | – | – | – | 50 nM | – |
| aprotinin(1-58, Val15) | – | – | – | – | – | inhibitory effect |
